Measured values from patent publication US20090036374A1.
One block for each substance: values may come before it.

What was measured:
[1] = molecular target: hepatocyte growth factor (HGF) (UniProt P14210); experiment: cell-based or functional assay
[2] = molecular target: Met on MDCK II cells (Madin-Darby canine kidney) (canine (cell line MDCK II)) (UniProt Q75ZY9); experiment: cell-based or functional assay

Substance: Met-885-Fc (Met-885 splice variant fused to human IgG1 Fc) (Fc fusion)
amount of inhibitory protein that gave roughly 50% inhibition of scattering, HGF ~5-7 ng/ml, MDCK and HT115 [1]: 0.1 to 1 µg/mL
inhibition of HGF-induced Met phosphorylation, A549 and MDA-MB-231 cells, doses higher than 3-10 nM [1]: > 90%
inhibition of HGF-induced phosphorylation of Met Y1230/4/5, MDA-MB-231 cells, 3 nM variant [1]: > 60%
inhibition of HGF-induced urokinase upregulation, MDCK II, 10 ng/ml HGF, 3 nM variant [1]: 60 to 80%
inhibition of HGF-induced urokinase upregulation, MDCK II, 10 ng/ml HGF, doses higher than 10 nM [1]: > 95%
scattering score, HT115, inhibitor 1 µg/ml, HGF 7 ng/ml [1]: 1 score 1-5
scattering score, HT115, inhibitor 5 µg/ml, HGF 7 ng/ml [1]: 1 score 1-5
scattering score, HT115, inhibitor 10 µg/ml, HGF 7 ng/ml [1]: 1 score 1-5
scattering score, HT115, inhibitor 30 µg/ml, HGF 50 ng/ml [1]: 2 score 1-5
scattering score, MDCK, inhibitor 1 µg/ml, HGF 5 ng/ml [1]: 2 score 1-5
scattering score, MDCK, inhibitor 5 µg/ml, HGF 5 ng/ml [1]: 2 score 1-5

Substance: hepatocyte growth factor (HGF) (from UniProt P14210 32-728) (ligand)
scattering score, MDCK, no inhibitor, HGF 5-100 ng/ml [2]: 5 score 1-5

The next lines start with the values.

amount of inhibitory protein that gave roughly 50% inhibition of scattering, HGF ~5-7 ng/ml, MDCK and HT115 [1]: 0.1 to 1 µg/mL
inhibition of HGF-induced Met tyrosine phosphorylation, A431 or A549 cells, 100 µg/ml Met-877, 10 ng/ml HGF [1]: 70%
inhibition of Met tyrosine phosphorylation, NCI-H441 cells (constitutive phosphorylation), 100 µg/ml Met-877, 10 ng/ml HGF [1]: 40%
scattering score, HT115, inhibitor 1 µg/ml, HGF 7 ng/ml [1]: 1 score 1-5
scattering score, HT115, inhibitor 5 µg/ml, HGF 7 ng/ml [1]: 1 score 1-5
scattering score, HT115, inhibitor 10 µg/ml, HGF 7 ng/ml [1]: 1 score 1-5
scattering score, HT115, inhibitor 10 µg/ml, HGF 50 ng/ml [1]: 3 score 1-5
scattering score, HT115, inhibitor 100 µg/ml, HGF 50 ng/ml [1]: 1 score 1-5
scattering score, MDCK, inhibitor 0.1 µg/ml, HGF 5 ng/ml [1]: 5 score 1-5
scattering score, MDCK, inhibitor 30 µg/ml, HGF 50 ng/ml [1]: 4 score 1-5
scattering score, MDCK, inhibitor 100 µg/ml, HGF 50 ng/ml [1]: 3 score 1-5
Substance: Met-877 His tag protein (Met-877 splice variant with C-terminal Strep II and 8xHis tags) (from UniProt P08581 25-861) (receptor)

amount of inhibitory protein that gave roughly 50% inhibition of scattering, HGF ~5-7 ng/ml, MDCK and HT115 [1]: 0.1 to 1 µg/mL
inhibition of HGF-induced Met phosphorylation, A549 and MDA-MB-231 cells, doses higher than 3-10 nM [1]: > 90%
inhibition of HGF-induced phosphorylation of Met Y1230/4/5, MDA-MB-231 cells, 3 nM variant [1]: > 60%
inhibition of HGF-induced proliferation of AsPC-1 cells (BrdU incorporation), 10 ng/ml HGF, 877-Fc at 100 and 300 nM [1]: 90%
inhibition of HGF-induced urokinase upregulation, MDCK II, 10 ng/ml HGF, 3 nM variant [1]: 60 to 80%
inhibition of HGF-induced urokinase upregulation, MDCK II, 10 ng/ml HGF, 10 nM variant [1]: 80%
inhibition of HGF-induced urokinase upregulation, MDCK II, 10 ng/ml HGF, doses higher than 10 nM [1]: > 95%
inhibition of HGF-induced urokinase upregulation, MDCK II, 10 ng/ml HGF, variant at 50 nM or more [1]: > 95%
scattering score, HT115, inhibitor 0.1 µg/ml, HGF 3 ng/ml [1]: 2 score 1-5
scattering score, HT115, inhibitor 0.1 µg/ml, HGF 5 ng/ml [1]: 3 score 1-5
scattering score, HT115, inhibitor 5 µg/ml, HGF 5 ng/ml [1]: 1 score 1-5
scattering score, HT115, inhibitor 5 µg/ml, HGF 7 ng/ml [1]: 1 score 1-5
scattering score, HT115, inhibitor 10 µg/ml, HGF 1 ng/ml [1]: 1 score 1-5
scattering score, HT115, inhibitor 10 µg/ml, HGF 3 ng/ml [1]: 1 score 1-5
scattering score, HT115, inhibitor 10 µg/ml, HGF 5 ng/ml [1]: 1 score 1-5
scattering score, HT115, inhibitor 10 µg/ml, HGF 7 ng/ml [1]: 1 score 1-5
scattering score, HT115, inhibitor 10 µg/ml, HGF 50 ng/ml [1]: 2 score 1-5
scattering score, HT115, inhibitor 100 µg/ml, HGF 50 ng/ml [1]: 1 score 1-5
scattering score, MDCK, inhibitor 0.1 µg/ml, HGF 7 ng/ml [1]: 5 score 1-5
scattering score, MDCK, inhibitor 1 µg/ml, HGF 1 ng/ml [1]: 1 score 1-5
scattering score, MDCK, inhibitor 1 µg/ml, HGF 5 ng/ml [1]: 3 score 1-5
scattering score, MDCK, inhibitor 1 µg/ml, HGF 7 ng/ml [1]: 3 score 1-5
scattering score, MDCK, inhibitor 1 µg/ml, HGF 10 ng/ml [1]: 3 score 1-5
scattering score, MDCK, inhibitor 5 µg/ml, HGF 10 ng/ml [1]: 2 score 1-5
scattering score, MDCK, inhibitor 10 µg/ml, HGF 1 ng/ml [1]: 1 score 1-5
scattering score, MDCK, inhibitor 10 µg/ml, HGF 5 ng/ml [1]: 1 score 1-5
scattering score, MDCK, inhibitor 10 µg/ml, HGF 7 ng/ml [1]: 1 score 1-5
scattering score, MDCK, inhibitor 10 µg/ml, HGF 10 ng/ml [1]: 1 score 1-5
scattering score, MDCK, inhibitor 10 µg/ml, HGF 30 ng/ml [1]: 2 score 1-5
scattering score, MDCK, inhibitor 30 µg/ml, HGF 10 ng/ml [1]: 1 score 1-5
scattering score, MDCK, inhibitor 30 µg/ml, HGF 30 ng/ml [1]: 1 score 1-5
scattering score, MDCK, inhibitor 30 µg/ml, HGF 100 ng/ml [1]: 2 score 1-5
scattering score, MDCK, inhibitor 100 µg/ml, HGF 100 ng/ml [1]: 1 score 1-5
Substance: Met-877-Fc (Met-877 splice variant fused to human IgG1 Fc) (Fc fusion)

amount of inhibitory protein that gave roughly 50% inhibition of scattering, HGF ~5-7 ng/ml, MDCK and HT115 [1]: 0.1 to 1 µg/mL
inhibition of HGF-induced Met phosphorylation, A549 and MDA-MB-231 cells, doses higher than 3-10 nM [1]: > 90%
inhibition of HGF-induced phosphorylation of Met Y1230/4/5, MDA-MB-231 cells, 3 nM variant [1]: > 60%
inhibition of HGF-induced urokinase upregulation, MDCK II, 10 ng/ml HGF, 3 nM variant [1]: 60 to 80%
inhibition of HGF-induced urokinase upregulation, MDCK II, 10 ng/ml HGF, doses higher than 10 nM [1]: > 95%
scattering score, MDCK, inhibitor 10 µg/ml, HGF 50 ng/ml [1]: 3 score 1-5
scattering score, MDCK, inhibitor 10 µg/ml, HGF 100 ng/ml [1]: 5 score 1-5
scattering score, MDCK, inhibitor 30 µg/ml, HGF 50 ng/ml [1]: 2 score 1-5
scattering score, MDCK, inhibitor 100 µg/ml, HGF 100 ng/ml [1]: 1 score 1-5
Substance: Met-934-Fc (Met-934 splice variant fused to human IgG1 Fc) (Fc fusion)
